Consider 39 variants from the RNAGym collection of RNA variant scans (doi:10.7554/elife.80360).

The chains are these.
B1: CPEB3 Ribozyme (parent)
chain: GGGGGCCACAGCAGAAGCGUUCACGUCGCGGCCCCUGUCAGAUUCUGGUGAAUCUGCGAAUUCUGCUGU

In the data set the parent is B1. Nature of the data set: self-cleavage, relative activity (ratio to wild type); higher = more cleavage; co-transcriptional.
On to GGGGGCCACAGAAGAAGCGUUCACGUCGCGGCCCCUGUCAGAUUCUGGUGUAUCUGCGAAUUCUGCUGU [C12A A51U], for which the self-cleavage stood at 0.628.
The same measure for GGGGGCCACAGAAGAAGCGUUCACGUCGCGGCCCCUGUCAGAUUCUGGUGCAUCUGCGAAUUCUGCUGU [C12A A51C]: 0.544.
The same measure for GGGGGCCACAUCAGAAGCGUUCACGUCGCGGACCCUGUCAGAUUCUGGUGAAUCUGCGAAUUCUGCUGU [G11U C32A]: 0.773.
The same measure for GGGGGCCACAUCAGAAGCGUUCACGUCGCGGCCCCUGUCAGAUUCUGGUGAAUCUGCGAAUUCCGCUGU [G11U U64C]: 0.498; for GGGGGCCACAUCAGAAGCGUUCACGUCGCGGCCCCUGUCAGAUUCUGGUGAAUCUGCGAAUUCGGCUGU [G11U U64G]: 0.447; for GGGGGCCACACCAGAAGCGGUCACGUCGCGGCCCCUGUCAGAUUCUGGUGAAUCUGCGAAUUCUGCUGU [G11C U20G]: 0.169.
Consider GGGGGCCACACCAGAAGCGUUCACGUCGCGGCCCCUGUCAGAUUCUGGUGAAUCUGCGAAUUCUGCUGA [G11C U69A], for which the self-cleavage is 0.921.
As for GGGGGCCACACCAGAAGCGUUCACGUCGCGGCCCCUGUCAGAUUCUGGUGAAUCUGCGAAUUCUGCUGG [G11C U69G], the self-cleavage amounted to 0.97.
The same measure for GGGGGCCACACCAGAAGCGUUCACGUCGCGGCCCCUGUCAGAUUCUGGUGAAUCUGCGAAUUCUGCUGC [G11C U69C]: 1.01.
The same measure for GGGGGCCACAUCAGAAGCGUUCACGUCGCGGCCCCUGUCAGAUUCUGGUGAAUCUGCGACUUCUGCUGU [G11U A60C]: 0.234; for GGGGGCCACAUCAGAAGCGUUCACGUCGCGGCCCCUGUCAGAUUCUGGUGAAUCUGCGAGUUCUGCUGU [G11U A60G]: 0.497.
The same measure for GGGGGCCACAUCAGAAGCGUUCACGUCGCGGCCCCUGUCAGAUUCUGGUGAAUCUGCGAUUUCUGCUGU [G11U A60U]: 0.281; for GGGGGCCACAUCAGAAGCGUUCACGUCACGGCCCCUGUCAGAUUCUGGUGAAUCUGCGAAUUCUGCUGU [G11U G28A]: 0.125.
In the case of GGGGGCCACACCAGAAGCGUUCACGUCGCGGCCCCUGUCAGAUUCUGGUGAAUCUGCGAAUUCUACUGU [G11C G65A], the self-cleavage amounted to 0.559.
In the case of GGGGGCCACAGAAGAUGCGUUCACGUCGCGGCCCCUGUCAGAUUCUGGUGAAUCUGCGAAUUCUGCUGU [C12A A16U], the self-cleavage turned out to be 0.27.
In the case of GGGGGCCACACCAGAAGCGUUCACGUCGCGGCCCCUGUCAGAGUCUGGUGAAUCUGCGAAUUCUGCUGU [G11C U43G] it was 0.279; in that of GGGGGCCACAUCAGAAGCGUUCACGUCGCGGCCCCAGUCAGAUUCUGGUGAAUCUGCGAAUUCUGCUGU [G11U U36A], 0.164; in that of GGGGGCCACAUCAGAAGCGUUCACGUCGCGGCCCCUGUCAGUUUCUGGUGAAUCUGCGAAUUCUGCUGU [G11U A42U], 0.581.
Regarding GGGGGCCACACCAGAAGCGUUCACGUCGCGGCCCCUGUCAGAUGCUGGUGAAUCUGCGAAUUCUGCUGU [G11C U44G], the self-cleavage turned out to be 0.662.
Regarding GGGGGCCACACCAGAAGCGUUCACGUCGCGGCCCCUGUCAGAUCCUGGUGAAUCUGCGAAUUCUGCUGU [G11C U44C], the self-cleavage was 0.459.
In the case of GGGGGCCACAUCAGAAGCGUUCACGUCGCGGCCCCUGACAGAUUCUGGUGAAUCUGCGAAUUCUGCUGU [G11U U38A] it was 0.687; in that of GGGGGCCACAUCAGAAGCGUUCACGUCGCGGCCCCUGGCAGAUUCUGGUGAAUCUGCGAAUUCUGCUGU [G11U U38G], 0.178.
The same measure for GGGGGCCACAUCAGAAGCGUUCACGUCGCGGCCCCUGUCAGAUUCUGGUGAAUCUGCGAAUUCUGCUGC [G11U U69C]: 1.05; for GGGGGCCACAUCAGAAGCGUUCACGUCGCGGCCCCUGUCAGAUUCUGGUGAAUCUGCGAAUUAUGCUGU [G11U C63A]: 0.418.
Turning to GGGGGCCACAGAAGAAGCGUUCACGUCGCGGCCCCUGUCAGUUUCUGGUGAAUCUGCGAAUUCUGCUGU [C12A A42U], the self-cleavage is 0.402.
For the variant GGGGGCCACACCAGAAGCGUUCACGUCGCGGCCCCUGUCAGAUUCUGGUGAAUCUGCGAACUCUGCUGU [G11C U61C], the self-cleavage was 0.203.
In the case of GGGGGCCACAUCAGAAGCGUUCACGUCGCGGCCCCUGUCAGAUUCUGGUGAAUCUGCGAAUUCUGCUAU [G11U G68A] it was 0.932; in that of GGGGGCCACACCAGAAGCGUUCACGUCGCGGCCCCUGCCAGAUUCUGGUGAAUCUGCGAAUUCUGCUGU [G11C U38C], 0.7; in that of GGGGGCCACAUCAGAAGCGUUCACGUCGCUGCCCCUGUCAGAUUCUGGUGAAUCUGCGAAUUCUGCUGU [G11U G30U], 0.263.
In the case of GGGGGCCACACCAGAAGCGUUCACGUCGCGGCCCCUGUCAGAUUCUGGUGAAUCGGCGAAUUCUGCUGU [G11C U55G], the self-cleavage came to 0.165.
In the case of GGGGGCCACACCAGAAGCGUUCACGUCGCGGCCCCUGUCAGAUUCUGGUGAAUCAGCGAAUUCUGCUGU [G11C U55A] it was 0.271; in that of GGGGGCCACAUCAGAAGCGUUCACGUCGCGGCCCCUGUCAGAUUCUUGUGAAUCUGCGAAUUCUGCUGU [G11U G47U], 0.941.
GGGGGCCACAUCAGAAGCGUUCACGUCGCGGCCCCUGUCAGAUUCUGGUGCAUCUGCGAAUUCUGCUGU [G11U A51C]: the self-cleavage came to 0.669.
As for GGGGGCCACAGAAGAAGCGUUCACGUCGCGGCCCCUGUCAGAUUCUGGUGAAUCUGCGAAUUCUGCUGU [C12A], the self-cleavage was determined as 0.806.
The same measure for GGGGGCCACAUCAGAAGCGUUCACGUCGCGGCCCCUGUCAGAUUCUGGUGAAACUGCGAAUUCUGCUGU [G11U U53A]: 0.562; for GGGGGCCACAUCAGAAGCGUUCACGUCGCGGCCCAUGUCAGAUUCUGGUGAAUCUGCGAAUUCUGCUGU [G11U C35A]: 0.16.
As to GGGGGCCACAGAAGAAGCGUUCACGUCGAGGCCCCUGUCAGAUUCUGGUGAAUCUGCGAAUUCUGCUGU [C12A C29A], the self-cleavage is 0.121.
In the case of GGGGGCCACAUCAGAAGCGUUCACGUCGCGGCCCCUGUCUGAUUCUGGUGAAUCUGCGAAUUCUGCUGU [G11U A40U] it was 0.256; in that of GGGGGCCACACCAGAAGCGUACACGUCGCGGCCCCUGUCAGAUUCUGGUGAAUCUGCGAAUUCUGCUGU [G11C U21A], 0.827.
